Laboratory results from PMC3531487, “An Allele of an Ancestral Transcription Factor Dependent on a Horizontally Acquired Gene Product” (PLoS Genetics, 2012).

Molecular target: the molecule itself
Assay: SEC; analytical gel filtration; PmrA (50 µM) phosphorylated with pGEX-PmrBc T156R beads, 100 µl applied individually to Superdex 200 10/300 GL at 4°C in 1× TBS/1 mM MgCl2/1 mM DTT/10% glycerol, 0.5 ml/min, A280; monomer to dimer

B1: phosphorylated PmrA (G211) protein from S. enterica serovar Typhimurium (natural protein)
chain: MKILIVEDDTLLLQGLILAAQTEGYACDGVSTARAAEHSLESGHYSLMVLDLGLPDEDGLHFLTRIRQKKYTLPVLILTARDTLNDRITGLDVGADDYLVKPFALEELHARIRALLRRHNNQGESELTVGNLTLNIGRHQAWRDGQELTLTPKEYALLSRLMLKAGSPVHREILYNDIYNWDNEPSTNTLEVHIHNLRDKVGKSRIRTVRGFGYMLVATEES
modifications: phosphorylated (PmrA-P; phospho-Asp, residue number not given)
notes: PmrA, response regulator of the PmrA/PmrB two-component system, S. enterica serovar Typhimurium 14028s; glycine at position 211; In gel filtration a mixture of monomer and dimer; probably the whole 222-residue protein; also called PmrA-P; PmrA-H6
  Dimer: Monomer (ratio of peak heights, A280): 0.29
  stoichiometry N: 2

B2: phosphorylated PmrA (E211) protein from S. enterica serovar Paratyphi B (natural protein)
chain: MKILIVEDDTLLLQGLILAAQTEGYACDGVSTARAAEHSLESGHYSLMVLDLGLPDEDGLHFLTRIRQKKYTLPVLILTARDTLNDRITGLDVGADDYLVKPFALEELHARIRALLRRHNNQGESELTVGNLTLNIGRHQAWRDGQELTLTPKEYALLSRLMLKAGSPVHREILYNDIYNWDNEPSTNTLEVHIHNLRDKVGKSRIRTVREFGYMLVATEES
modifications: phosphorylated (PmrA-P; phospho-Asp, residue number not given)
notes: PmrA, response regulator of the PmrA/PmrB two-component system, natural allele of S. enterica serovar Paratyphi B (SPV) SARA46; differs from the S. typhimurium PmrA by a single amino acid, glutamate instead of glycine at position 211; also called PmrA-H6
  Dimer: Monomer (ratio of peak heights, A280): 0.11
  stoichiometry N: 2
